The term stoichiometry N denotes the number of molecules, sites or subunits per partner or assembly.

Consider 7 molecules from article PMC5091643, “Dimer/monomer status and in vivo function of salt‐bridge mutants of the plant UV‐B photoreceptor UVR8” (The Plant Journal, 2016).

For series [1], the target named is T1, UV … LOCUS8 (UVR8), purified wild-type (Arabidopsis thaliana), Q9FN03.
T1 chain: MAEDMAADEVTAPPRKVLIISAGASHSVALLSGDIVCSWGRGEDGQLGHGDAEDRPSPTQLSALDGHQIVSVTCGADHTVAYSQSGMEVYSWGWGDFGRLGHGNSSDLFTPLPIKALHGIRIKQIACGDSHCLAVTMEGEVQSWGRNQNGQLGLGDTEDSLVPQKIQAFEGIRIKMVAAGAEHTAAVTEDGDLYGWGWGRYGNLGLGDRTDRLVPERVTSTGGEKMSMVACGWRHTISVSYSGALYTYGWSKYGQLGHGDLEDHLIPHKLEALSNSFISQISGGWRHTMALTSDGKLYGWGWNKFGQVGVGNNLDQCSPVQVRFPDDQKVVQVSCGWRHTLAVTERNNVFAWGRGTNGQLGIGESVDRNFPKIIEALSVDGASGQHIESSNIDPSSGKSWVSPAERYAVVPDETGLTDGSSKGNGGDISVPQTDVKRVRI
The experiment in a line: SEC; purified proteins not exposed to UV-B; Superdex 200 HR10/30, 50 mM Tris pH 7.5, 150 mM NaCl, 1 mM β-ME, 0.02% sodium azide, 4°C; dimer to monomers. To be noted: remark: other sources report otherwise.

Series [2] deals with the molecule itself. The description is as above.
For series [3], the target named is T2, GFP-UVR8 (wild type) transiently expressed in Nicotiana benthamiana (Arabidopsis thaliana), Q9FN03.
T2 chain: T1 chain
As to the kind of experiment: SEC; GFP fusions transiently expressed in N. benthamiana, not exposed to UV-B, immunoprecipitated with anti-GFP microbeads; eluates on Superdex 200, fractions blotted with anti-GFP. Conditions: remark: other sources report otherwise. Background: SEC sorts molecules by how far they enter the pores of the column.

Series [4] deals with the molecule itself. The experiment in a line: cross-linking; DSP (4 mM, 30 min on ice) added to PBS extracts of transgenic uvr8-1 plants not exposed to UV-B; 10% SDS-PAGE without β-ME, blot with anti-UVR8.
The target of series [5] is T3, GFP-UVR8 (wild type) in transgenic Arabidopsis uvr8-1 (Arabidopsis thaliana), Q9FN03.
T3 chain: T1 chain
Described as above. To be noted: remark: other sources report otherwise.

Series [6] concerns the target T3, GFP-UVR8 (wild type) in transgenic …. As to the kind of experiment: SDS-PAGE with non-boiled samples; whole cell extracts of transgenic uvr8-1 plants not exposed to UV-B; SDS-loading buffer, not boiled, 7.5% gel, blot with anti-UVR8. To be noted: remark: other sources report otherwise.

Changes are numbered by the printed parent chain. Names and notes keep the numbering of the source.

B1: UV … LOCUS8 (UVR8), purified wild-type, Q9FN03 1-440 (natural protein)
chain: T1 chain
Molecule B1 showed a stoichiometry N in series [1] of 2.

B2: UVR8^R286K, purified (natural protein, Arabidopsis thaliana, UniProt Q9FN03 1-440, looked up)
chain: T1 chain with R286K
notes: UV … LOCUS8 (UVR8), Arabidopsis thaliana; source: E. coli, purified as described previously (Christie et al., 2012)
Consider B2, for which the “stoichiometry N” value in series [2] came to 2.

B3: UVR8^R146A, purified (natural protein, Arabidopsis thaliana, UniProt Q9FN03 1-440, looked up)
chain: T1 chain with R146A
notes: as for B2
Turning to B3, the “stoichiometry N” value in series [2] came to 2.

B4: GFP-UVR8 (wild type) transiently expressed in Nicotiana benthamiana, Q9FN03 1-440 (natural protein)
chain: T1 chain
In turn, B4 had a stoichiometry N in series [3] of 2.

B5: GFP-UVR8^R286K in transgenic Arabidopsis uvr8-1 (natural protein, Arabidopsis thaliana, UniProt Q9FN03 1-440, looked up)
chain: T1 chain with R286K
notes: UV … LOCUS8 (UVR8), Arabidopsis thaliana; Sub-cloned into pEZR(K)L-C downstream of eGFP; also called line 2-3; source: transgenic Arabidopsis uvr8-1 plants (CaMV 35S promoter), in whole cell extract; not shown: eGFP, N-terminal, kept
Take B5: the “stoichiometry N” value in series [4] came to 2.

B6: GFP-UVR8^R146A in transgenic Arabidopsis uvr8-1 (natural protein, Arabidopsis thaliana, UniProt Q9FN03 1-440, looked up)
chain: T1 chain with R146A
notes: UV … LOCUS8 (UVR8), Arabidopsis thaliana; Sub-cloned into pEZR(K)L-C downstream of eGFP; also called line 9; source: transgenic Arabidopsis uvr8-1 plants (CaMV 35S promoter), in whole cell extract; not shown: eGFP, N-terminal, kept
Regarding B6, the “stoichiometry N” value in series [4] stood at 2.

B7: GFP-UVR8 (wild type) in transgenic Arabidopsis uvr8-1, Q9FN03 1-440 (natural protein)
chain: T1 chain
On to B7, for which the stoichiometry N in series [5] and in series [6] was 2 each time.
